We go through one molecule from patent US20050226876A1 (Hoffmann-La Roche, published 2005).

Assay [1] concerns the target T1, P-selectin on P-selectin-CHO transfectants (human, UniProt P16109 42-830).
T1 construct: whole, on cells; not restated for the transfectant; also called P-selectin-CHO cells; P-selectin CHO cells
T1 sequence (looked up): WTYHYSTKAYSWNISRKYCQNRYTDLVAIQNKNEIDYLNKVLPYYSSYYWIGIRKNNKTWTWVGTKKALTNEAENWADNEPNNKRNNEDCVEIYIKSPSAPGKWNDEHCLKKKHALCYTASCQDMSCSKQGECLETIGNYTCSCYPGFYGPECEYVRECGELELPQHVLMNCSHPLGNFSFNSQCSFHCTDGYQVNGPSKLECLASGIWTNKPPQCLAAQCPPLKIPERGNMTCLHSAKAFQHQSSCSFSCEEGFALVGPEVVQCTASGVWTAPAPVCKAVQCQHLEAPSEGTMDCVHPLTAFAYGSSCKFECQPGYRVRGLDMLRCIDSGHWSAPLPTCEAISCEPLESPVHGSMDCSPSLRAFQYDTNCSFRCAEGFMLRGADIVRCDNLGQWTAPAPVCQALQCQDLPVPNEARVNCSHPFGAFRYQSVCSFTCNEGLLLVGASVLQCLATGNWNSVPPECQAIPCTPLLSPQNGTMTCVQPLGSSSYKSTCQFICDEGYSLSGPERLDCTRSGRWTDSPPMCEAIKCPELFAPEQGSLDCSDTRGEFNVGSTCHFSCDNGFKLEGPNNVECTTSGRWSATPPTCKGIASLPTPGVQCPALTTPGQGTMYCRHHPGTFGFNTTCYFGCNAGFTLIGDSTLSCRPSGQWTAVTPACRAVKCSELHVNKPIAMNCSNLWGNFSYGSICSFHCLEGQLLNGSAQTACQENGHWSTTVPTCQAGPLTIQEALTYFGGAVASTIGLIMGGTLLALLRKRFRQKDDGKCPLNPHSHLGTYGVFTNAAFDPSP
The assay can be described thus: cell-based ELISA on P-selectin-CHO transfectants, OD405. On the procedure:
(§1) In the cell-based ELISA P— and E-selectin-CHO-transfectants, after detaching the cells with cell-dissociation solution (Sigma C5914), were seeded into each well of 96 well plates (TC Microwell F96 Nunc 167008) adjusted to 100,000 cells/well and cultivated in respective media overnight at 37° C. (medium for P— CHO-transfectants: DMEM+10% FCS+2 mM Glutamine+Penicillin 100 U/ml/Streptomycin 100 μg/ml; medium for E-selctin transfecttants: HAM F-12+10% FCS+2 mM Glutamine+Penicillin 100 U/ml/Streptomycin 100 μg/ml+0.1% Fungizone+100 μg/ml Neomycin). […] After washing the wells (4 times), the bound antibodies were detected using the same steps as mentioned above for the cell-free ELISA.
(An ELISA detects its analyte on a solid surface through an enzyme-linked reagent.)

For assay [2], the target named is T2, E-selectin on E-selectin-CHO transfectants (UniProt P16581 22-610, limits assumed).
T2 construct: whole, on cells; also called E-selectin-CHO cells; E-selectin transfectants
T2 sequence (looked up): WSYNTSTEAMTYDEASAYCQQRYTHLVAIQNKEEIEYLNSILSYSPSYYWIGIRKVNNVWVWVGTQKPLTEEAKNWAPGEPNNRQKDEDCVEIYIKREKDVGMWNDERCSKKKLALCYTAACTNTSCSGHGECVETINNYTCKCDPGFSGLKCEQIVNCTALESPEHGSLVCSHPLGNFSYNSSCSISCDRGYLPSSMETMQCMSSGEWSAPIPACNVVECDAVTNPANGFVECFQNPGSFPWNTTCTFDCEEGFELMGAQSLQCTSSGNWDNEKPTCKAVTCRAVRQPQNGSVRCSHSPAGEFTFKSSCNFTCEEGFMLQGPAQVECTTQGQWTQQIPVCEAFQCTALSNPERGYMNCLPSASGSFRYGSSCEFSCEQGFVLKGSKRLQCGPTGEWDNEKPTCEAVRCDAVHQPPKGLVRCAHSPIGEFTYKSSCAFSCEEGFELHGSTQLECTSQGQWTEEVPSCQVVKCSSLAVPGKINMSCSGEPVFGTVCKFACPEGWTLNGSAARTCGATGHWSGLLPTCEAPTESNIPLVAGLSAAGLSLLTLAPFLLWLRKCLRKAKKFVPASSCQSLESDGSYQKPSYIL
Nature of the assay: cell-based ELISA on E-selectin-CHO transfectants, OD405. On the procedure: as §1

Assay [3] concerns the target T3, P-selectin on thrombin-activated human platelets (human, UniProt P16109 42-830).
T3 sequence (looked up): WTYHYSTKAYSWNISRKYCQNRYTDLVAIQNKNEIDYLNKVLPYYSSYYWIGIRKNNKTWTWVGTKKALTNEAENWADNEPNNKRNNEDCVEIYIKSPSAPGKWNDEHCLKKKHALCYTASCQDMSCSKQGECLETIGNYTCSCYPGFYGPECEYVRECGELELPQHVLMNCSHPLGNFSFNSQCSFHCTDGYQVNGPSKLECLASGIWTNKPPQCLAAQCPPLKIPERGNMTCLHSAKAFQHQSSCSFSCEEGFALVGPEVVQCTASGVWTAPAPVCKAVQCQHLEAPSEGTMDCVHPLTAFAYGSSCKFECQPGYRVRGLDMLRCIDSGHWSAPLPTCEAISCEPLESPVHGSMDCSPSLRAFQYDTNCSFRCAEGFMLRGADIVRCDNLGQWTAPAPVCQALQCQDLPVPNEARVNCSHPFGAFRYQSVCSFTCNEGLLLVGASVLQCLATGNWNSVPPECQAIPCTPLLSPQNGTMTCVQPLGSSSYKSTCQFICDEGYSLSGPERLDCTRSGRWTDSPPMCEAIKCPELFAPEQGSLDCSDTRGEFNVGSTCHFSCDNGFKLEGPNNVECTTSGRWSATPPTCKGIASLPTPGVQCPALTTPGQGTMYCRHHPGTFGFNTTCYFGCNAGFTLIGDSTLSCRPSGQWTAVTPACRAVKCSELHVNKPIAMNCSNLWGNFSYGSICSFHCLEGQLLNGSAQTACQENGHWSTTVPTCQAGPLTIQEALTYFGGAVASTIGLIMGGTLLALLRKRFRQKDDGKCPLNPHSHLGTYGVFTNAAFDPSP
The assay can be described thus: cell-based or functional assay.

B1: HuMab 002 Fc variant IgG1v1 (PVA-236; GLPSS331: E233P; L234V; L235A; delta G236; A327G; A330S; P331S) (antibody)
heavy: EVQLVESGGGLVRPGGSLRLSCAASGFTFSNYDMHWVRQATGKGLEWVSAITAAGDIYYPGSVKGRFTISRENAKNSLYLQMNSLRAGDTAVYYCARGRYSGSGSYYNDWFDPWGQGTLVTVSSASTKGPSVFPLAPSSKSTSGGTAALGCLVKDYFPEPVTVSWNSGALTSGVHTFPAVLQSSGLYSLSSVVTVPSSSLGTQTYICNVNHKPSNTKVDKKVEPKSCDKTHTCPPCPAPPVAGPSVFLFPPKPKDTLMISRTPEVTCVVVDVSHEDPEVKFNWYVDGVEVHNAKTKPREEQYNSTYRVVSVLTVLHQDWLNGKEYKCKVSNKGLPSSIEKTISKAKGQPREPQVYTLPPSRDELTKNQVSLTCLVKGFYPSDIAVEWESNGQPENNYKTTPPVLDSDGSFFLYSKLTVDKSRWQQGNVFSCSVMHEALHNHYTQKSLSLSPGK
light: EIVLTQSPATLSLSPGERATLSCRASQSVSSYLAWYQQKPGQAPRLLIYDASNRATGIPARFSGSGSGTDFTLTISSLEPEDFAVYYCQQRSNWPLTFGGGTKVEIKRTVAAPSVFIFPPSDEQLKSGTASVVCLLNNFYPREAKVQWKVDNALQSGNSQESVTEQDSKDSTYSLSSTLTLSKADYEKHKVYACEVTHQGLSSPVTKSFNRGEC
notes: copies: 2 + 2
Usually EC50 (read off the curve) stands for the concentration that produces a half-maximal response. A lower EC50 (read off the curve) goes with a more potent agent. B1: the “EC50 (read off the curve)” value in assay [1] is approximately 0.03 µg/mL. The binding result in assay [2] is listed as “no binding (tested: 100 µg/ml)”. Moreover, in assay [3], the “IC50 (read off the curve), rosetting assay with thrombin-activated human platelets and HL60 cells” value was approximately 0.08 µg/mL.
